This passage reports Remaining activity [%] results from patent EP4717706A1.

Experiment [1] addresses VLP2 (virus-like particles, capsid protein particles of AAV serotype 2) (AAV serotype 2 (AAV2)) (UniProt P03135). Nature of the experiment: ELISA on immobilised VLP2 (purified protein, 5 µg/mL); A450 after 1:1 1 M NaOH with 1 mM CaCl2, 30°C, 60 min divided by A450 at 0 time. For orientation: In an ELISA, binding on a coated surface is turned into a signal by an enzyme label.

The target is the same in experiment [2]. Nature of the experiment: ELISA on immobilised VLP2 (purified protein, 5 µg/mL); start of alkali treatment, the reference of the ratio.
For experiment [3] the target is unchanged. The experiment in a line: ELISA on immobilised VLP2 (purified protein, 5 µg/mL); A450 after 1:1 1 M NaOH with 1 mM CaCl2, 30°C, 30 min divided by A450 at 0 time.
The target is the same in experiment [4]. Nature of the experiment: ELISA on immobilised VLP2 (culture supernatant); A450 after 1:1 1 M NaOH, 15 min, 30°C divided by A450 untreated.
Experiment [5] shares this target. The experiment in a line: ELISA on immobilised VLP2 (purified protein, 5 µg/mL); A450 after 1:1 1 M NaOH with 1 mM CaCl2, 30°C, 45 min divided by A450 at 0 time.
Experiment [6] has the same target. The experiment in a line: ELISA on immobilised VLP2 (purified protein, 5 µg/mL); A450 after 1:1 1 M NaOH with 1 mM CaCl2, 30°C, 30 min divided by A450 at 0 time. This is another data set of the same source.
For experiment [7] the target is unchanged. Nature of the experiment: ELISA on immobilised VLP2 (purified protein); start of alkali treatment, the reference of the ratio.
Experiment [8] shares this target. The experiment in a line: ELISA on immobilised VLP2 (purified protein); A450 after 1:1 0.5 M NaOH, 30°C, 60 min divided by A450 at 0 time.
For experiment [9] the target is unchanged. Nature of the experiment: ELISA on immobilised VLP2 (purified protein); A450 after 1:1 0.5 M NaOH, 30°C, 30 min divided by A450 at 0 time.
Experiment [10] has the same target. Nature of the experiment: ELISA on immobilised VLP2 (purified protein, 5 µg/mL); A450 after 1:1 1 M NaOH with 1 mM CaCl2, 30°C, 20 min divided by A450 at 0 time.
Experiment [11] has the same target. The experiment is described as above. The source holds these as a separate data set.
For experiment [12] the target is unchanged. Nature of the experiment: ELISA on immobilised VLP2 (purified protein, 5 µg/mL); A450 after 1:1 1 M NaOH with 1 mM CaCl2, 30°C, 60 min divided by A450 at 0 time. The source holds these as a separate data set.
Experiment [13] shares this target. The experiment in a line: ELISA on immobilised VLP2 (purified protein, 5 µg/mL); A450 after 1:1 1 M NaOH with 1 mM CaCl2, 30°C, 30 min divided by A450 at 0 time. This is another data set of the same source.
For experiment [14] the target is unchanged. Nature of the experiment: ELISA on immobilised VLP2 (purified protein, 5 µg/mL); A450 after 1:1 1 M NaOH with 1 mM CaCl2, 30°C, 60 min divided by A450 at 0 time. The source holds these as a separate data set.

Chain of UniProt P03135 (P03135 whole entry): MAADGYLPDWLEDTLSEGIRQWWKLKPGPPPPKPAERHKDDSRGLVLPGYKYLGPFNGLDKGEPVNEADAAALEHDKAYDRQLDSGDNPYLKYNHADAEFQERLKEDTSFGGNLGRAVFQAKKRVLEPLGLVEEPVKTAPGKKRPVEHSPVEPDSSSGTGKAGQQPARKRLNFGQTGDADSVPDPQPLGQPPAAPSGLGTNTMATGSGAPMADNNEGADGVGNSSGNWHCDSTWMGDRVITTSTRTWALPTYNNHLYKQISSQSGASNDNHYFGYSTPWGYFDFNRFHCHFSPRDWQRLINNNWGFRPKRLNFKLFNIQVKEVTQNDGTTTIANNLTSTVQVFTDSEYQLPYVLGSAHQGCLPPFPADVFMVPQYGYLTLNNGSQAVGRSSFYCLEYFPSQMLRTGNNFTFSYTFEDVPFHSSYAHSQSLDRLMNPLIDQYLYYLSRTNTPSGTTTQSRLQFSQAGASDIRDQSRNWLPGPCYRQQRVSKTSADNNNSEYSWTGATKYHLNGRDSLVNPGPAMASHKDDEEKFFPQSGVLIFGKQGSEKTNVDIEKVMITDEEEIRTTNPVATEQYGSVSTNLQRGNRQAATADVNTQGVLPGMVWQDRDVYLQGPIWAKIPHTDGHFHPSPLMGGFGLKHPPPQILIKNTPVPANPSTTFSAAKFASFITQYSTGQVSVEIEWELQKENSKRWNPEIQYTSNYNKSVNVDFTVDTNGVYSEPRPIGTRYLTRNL

B1: AVR29a (AVR25c with I366F, V394A, K455R, T474R) (receptor)
chain: MGSAGESDQITLPKHEAQLKVYVLLVPPKGEASTYDWQLITHPRDYSGEMEGEHSQFLKLSNLTPGLYEYRAVVEGQNAHSEGYANVTVEPGPRKNRPPIAIVSPQFQEISLPTTSAVIDGSQSTDDDKIVQYHWEELKGPLREERISEDTPILKLSNLVPGNYRFRLTVVDTDGATDSTTADLTVNKAVDHHHHHH
Consider B1, for which the figures for the Remaining activity [%] in experiment [1], in experiment [2] and in experiment [3] were 5.07%, 100% and 24.2%, respectively.

B2: AVR25c_T474R (AVR25c with T474R) (receptor)
chain: MGSAGESDQITLPKHEAQLKVYVLLVPPKGEASTYDWQLITHPRDYSGEMEGEHSQILKLSNLTPGLYEYRAVVEGQNAHSEGYVNVTVEPGPRKNRPPIAIVSPQFQEISLPTTSAVIDGSQSTDDDKIVQYHWEELKGPLREEKISEDTPILKLSNLVPGNYRFRLTVVDTDGATDSTTADLTVNKAVDHHHHHH
In the case of B2, in experiment [4], the Remaining activity [%] turned out to be 100%.

B3: AVR27d (AVR25c with K455R, T474R) (receptor)
chain: MGSAGESDQITLPKHEAQLKVYVLLVPPKGEASTYDWQLITHPRDYSGEMEGEHSQILKLSNLTPGLYEYRAVVEGQNAHSEGYVNVTVEPGPRKNRPPIAIVSPQFQEISLPTTSAVIDGSQSTDDDKIVQYHWEELKGPLREERISEDTPILKLSNLVPGNYRFRLTVVDTDGATDSTTADLTVNKAVDHHHHHH
Turning to B3, the Remaining activity [%] in experiment [5] amounted to 5.11%; in experiment [2], 100%; in experiment [6], 15.8%.

B4: AVR24b (AVR21 with K338R, T426A, A461P) (receptor)
chain: MGSAGESDQITLPKHEAQLNVYVLLVPPRGEASTYDWQLITHPRDYSGEMEGEHSQILKLSNLTPGLYEYRAVVEGQNAHSEGYVNVTVEPEPRKNRPPIAIVSPQFQEISLPTTSAVIDGSQSTDDDKIVQYHWEELKGPLREEKISEDTPILKLSQLVPGNYTFRLTVVDTDGATDSTTADLTVNKAVDHHHHHH
As to B4, the figures for the Remaining activity [%] in experiment [7], in [8] and in [9] were 100%, 17.6% and 89.1%, respectively.

B5: AVR27b (AVR25c with I366F, T474R) (receptor)
chain: MGSAGESDQITLPKHEAQLKVYVLLVPPKGEASTYDWQLITHPRDYSGEMEGEHSQFLKLSNLTPGLYEYRAVVEGQNAHSEGYVNVTVEPGPRKNRPPIAIVSPQFQEISLPTTSAVIDGSQSTDDDKIVQYHWEELKGPLREEKISEDTPILKLSNLVPGNYRFRLTVVDTDGATDSTTADLTVNKAVDHHHHHH
B5: the Remaining activity [%] is 4.54% in [5], 100% in [2] and 17.1% in experiment [6].

B6: AVR29d (AVR25c with I366F, V394A, K455R, V499I) (receptor)
chain: MGSAGESDQITLPKHEAQLKVYVLLVPPKGEASTYDWQLITHPRDYSGEMEGEHSQFLKLSNLTPGLYEYRAVVEGQNAHSEGYANVTVEPGPRKNRPPIAIVSPQFQEISLPTTSAVIDGSQSTDDDKIVQYHWEELKGPLREERISEDTPILKLSNLVPGNYTFRLTVVDTDGATDSTTADLTVNKAIDHHHHHH
Take B6: the Remaining activity [%] in experiment [5] came to 4.47%; in [10], 63%; in experiment [2], 100%; in [11] it was 68.6%; in [12], 1.06%.

B7: AVR25b (AVR21 with K338R, E401G, T426A, A461P) (receptor)
chain: MGSAGESDQITLPKHEAQLNVYVLLVPPRGEASTYDWQLITHPRDYSGEMEGEHSQILKLSNLTPGLYEYRAVVEGQNAHSEGYVNVTVEPGPRKNRPPIAIVSPQFQEISLPTTSAVIDGSQSTDDDKIVQYHWEELKGPLREEKISEDTPILKLSQLVPGNYTFRLTVVDTDGATDSTTADLTVNKAVDHHHHHH
As to B7, the Remaining activity [%] in experiment [7] worked out at 100%; in experiment [8], 1.5%; in experiment [9] it was 100%.

B8: AVR29b (AVR25c with G314D, I366F, V394A, K455R) (receptor)
chain: MGSADESDQITLPKHEAQLKVYVLLVPPKGEASTYDWQLITHPRDYSGEMEGEHSQFLKLSNLTPGLYEYRAVVEGQNAHSEGYANVTVEPGPRKNRPPIAIVSPQFQEISLPTTSAVIDGSQSTDDDKIVQYHWEELKGPLREERISEDTPILKLSNLVPGNYTFRLTVVDTDGATDSTTADLTVNKAVDHHHHHH
On to B8, for which the Remaining activity [%] in [5] came out at 1.31%; in experiment [10], 58.7%; in [2] it was 100%; in [11], 63.7%; in experiment [12], 1.08%.

B9: AVR27c (AVR25c with V394A, T474R) (receptor)
chain: MGSAGESDQITLPKHEAQLKVYVLLVPPKGEASTYDWQLITHPRDYSGEMEGEHSQILKLSNLTPGLYEYRAVVEGQNAHSEGYANVTVEPGPRKNRPPIAIVSPQFQEISLPTTSAVIDGSQSTDDDKIVQYHWEELKGPLREEKISEDTPILKLSNLVPGNYRFRLTVVDTDGATDSTTADLTVNKAVDHHHHHH
As to B9, the figures for the Remaining activity [%] in experiment [5], in experiment [2] and in experiment [6] were 1.73%, 100% and 13.6%, respectively.

B10: AVR26 (AVR21 with N329K, K338R, E401G, T426A, A461P) (receptor)
chain: MGSAGESDQITLPKHEAQLKVYVLLVPPRGEASTYDWQLITHPRDYSGEMEGEHSQILKLSNLTPGLYEYRAVVEGQNAHSEGYVNVTVEPGPRKNRPPIAIVSPQFQEISLPTTSAVIDGSQSTDDDKIVQYHWEELKGPLREEKISEDTPILKLSQLVPGNYTFRLTVVDTDGATDSTTADLTVNKAVDHHHHHH
Regarding B10, the Remaining activity [%] in [7] came to 100%; in experiment [8] it was 23.9%; in experiment [9], 100%.

B11: AVR25c with T434S (receptor)
chain: MGSAGESDQITLPKHEAQLKVYVLLVPPKGEASTYDWQLITHPRDYSGEMEGEHSQILKLSNLTPGLYEYRAVVEGQNAHSEGYVNVTVEPGPRKNRPPIAIVSPQFQEISLPTTSAVIDGSQSSDDDKIVQYHWEELKGPLREEKISEDTPILKLSNLVPGNYTFRLTVVDTDGATDSTTADLTVNKAVDHHHHHH
Take B11: the Remaining activity [%] in [4] is 77.3%.

B12: AVR29c (AVR25c with I366F, V394A, K455R, K497E) (receptor)
chain: MGSAGESDQITLPKHEAQLKVYVLLVPPKGEASTYDWQLITHPRDYSGEMEGEHSQFLKLSNLTPGLYEYRAVVEGQNAHSEGYANVTVEPGPRKNRPPIAIVSPQFQEISLPTTSAVIDGSQSTDDDKIVQYHWEELKGPLREERISEDTPILKLSNLVPGNYTFRLTVVDTDGATDSTTADLTVNEAVDHHHHHH
Turning to B12, the Remaining activity [%] in experiment [5] amounted to 1.93%; in [10] it was 78.7%; in experiment [13] it was 57.7%; in experiment [2], 100%; in experiment [11] it was 93.2%; in experiment [12], 2.39%. Besides, the Remaining activity [%] in experiment [14] is 15.7%.

B13: AVR24a (AVR21 with N329K, E401G, T426A) (receptor)
chain: MGSAGESDQITLPKHEAQLKVYVLLVPPKGEASTYDWQLITHPRDYSGEMEGEHSQILKLSNLTPGLYEYRAVVEGQNAHSEGYVNVTVEPGPRKNRPPIAIVSPQFQEISLPTTSAVIDGSQSTDDDKIVQYHWEELKGPLREEKISEDTAILKLSQLVPGNYTFRLTVVDTDGATDSTTADLTVNKAVDHHHHHH
Take B13: the Remaining activity [%] in experiment [7] came out at 100%; in experiment [8], 0.3%; in experiment [9] it was 37.6%.
